In patent US20170313750A1 (Novo Nordisk, published 2017):
Numbered stars: 1 amine (or outer) side, 2 acyl side, 3 side chain; on linkers, the order of the positions; unused ones are H or OH. Side chains are listed from the residue outwards. * marks the point of attachment. C18 diacid = O=C(O)CCCCCCCCCCCCCCCCC(=O)*; γGlu = O=C(O)[C@H](CCC(=O)[*:2])N[*:1]; Isovaleryl = CC(C)CC(=O)*; AEEA = NCCOCCOCC(=O)O

B1: N{alpha-4}-(3-Methylbutanoyl)-N{Epsilon-7}-[2-[2-[2-[[2-[2-[2-[[(4S)-4-carboxy-4-(17-carboxyheptadecanoylamino)butanoyl]amino]ethoxy]ethoxy]acetyl]amino]-ethoxy … (peptide)
peptide: RPEKPTEDASPEELQRYYASLRHYYNWLTRQRY
modifications: N-terminal alpha-amino (position 4): 3-methylbutanoyl; Lys7 (hPYY(1-36) numbering) epsilon-amino: [2-[2-[2-[[2-[2-[2-[[(4S)-4-carboxy-4-(17-carboxyheptadecanoylamino)butanoyl]amino]ethoxy]ethoxy]acetyl]amino]ethoxy]ethoxy]acetyl]; C-terminal amide
notes: also called Compound 14; 14
B2: N{alpha-4}-(3-Methylbutanoyl)-N{Epsilon-10}-[2-[2-[2-[[2-[2-[2-[[(4S)-4-carboxy-4-(17-carboxyheptadecanoylamino)butanoyl]amino]ethoxy]ethoxy]acetyl]-amino]ethox … (peptide)
peptide: Isovaleryl-RPEAPGK([AEEA-AEEA-γGlu-C18 diacid])DASPEELQRYYESLRHYYNWLTRQRY-NH2
SMILES: CC(C)CC(=O)N[C@@H](CCCNC(=N)N)C(=O)N1CCC[C@H]1C(=O)N[C@@H](CCC(=O)O)C(=O)N[C@@H](C)C(=O)N1CCC[C@H]1C(=O)NCC(=O)N[C@@H](CCCCNC(=O)COCCOCCNC(=O)COCCOCCNC(=O)CC[C@H](NC(=O)CCCCCCCCCCCCCCCCC(=O)O)C(=O)O)C(=O)N[C@@H](CC(=O)O)C(=O)N[C@@H](C)C(=O)N[C@@H](CO)C(=O)N1CCC[C@H]1C(=O)N[C@@H](CCC(=O)O)C(=O)N[C@@H](CCC(=O)O)C(=O)N[C@@H](CC(C)C)C(=O)N[C@@H](CCC(N)=O)C(=O)N[C@@H](CCCNC(=N)N)C(=O)N[C@@H](Cc1ccc(O)cc1)C(=O)N[C@@H](Cc1ccc(O)cc1)C(=O)N[C@@H](CCC(=O)O)C(=O)N[C@@H](CO)C(=O)N[C@@H](CC(C)C)C(=O)N[C@@H](CCCNC(=N)N)C(=O)N[C@@H](Cc1c[nH]cn1)C(=O)N[C@@H](Cc1ccc(O)cc1)C(=O)N[C@@H](Cc1ccc(O)cc1)C(=O)N[C@@H](CC(N)=O)C(=O)N[C@@H](Cc1c[nH]c2ccccc12)C(=O)N[C@@H](CC(C)C)C(=O)N[C@H](C(=O)N[C@@H](CCCNC(=N)N)C(=O)N[C@@H](CCC(N)=O)C(=O)N[C@@H](CCCNC(=N)N)C(=O)N[C@@H](Cc1ccc(O)cc1)C(N)=O)[C@@H](C)O
notes: also called Compound 51; 51
B3: N{alpha-4}-(3-Methylbutanoyl)-N{Epsilon-10}-[(4S)-4-carboxy-4-[[2-[2-[2-[[(4S)-4-carboxy-4-(17-carboxyheptadecanoylamino)butanoyl]amino]ethoxy]ethoxy]-acetyl]am … (peptide)
peptide: Isovaleryl-RPEAPPK([γGlu-AEEA-γGlu-C18 diacid])DASPEELQRYYASLRHYYNWLTRQRY-NH2
SMILES: CC(C)CC(=O)N[C@@H](CCCNC(=N)N)C(=O)N1CCC[C@H]1C(=O)N[C@@H](CCC(=O)O)C(=O)N[C@@H](C)C(=O)N1CCC[C@H]1C(=O)N1CCC[C@H]1C(=O)N[C@@H](CCCCNC(=O)CC[C@H](NC(=O)COCCOCCNC(=O)CC[C@H](NC(=O)CCCCCCCCCCCCCCCCC(=O)O)C(=O)O)C(=O)O)C(=O)N[C@@H](CC(=O)O)C(=O)N[C@@H](C)C(=O)N[C@@H](CO)C(=O)N1CCC[C@H]1C(=O)N[C@@H](CCC(=O)O)C(=O)N[C@@H](CCC(=O)O)C(=O)N[C@@H](CC(C)C)C(=O)N[C@@H](CCC(N)=O)C(=O)N[C@@H](CCCNC(=N)N)C(=O)N[C@@H](Cc1ccc(O)cc1)C(=O)N[C@@H](Cc1ccc(O)cc1)C(=O)N[C@@H](C)C(=O)N[C@@H](CO)C(=O)N[C@@H](CC(C)C)C(=O)N[C@@H](CCCNC(=N)N)C(=O)N[C@@H](Cc1c[nH]cn1)C(=O)N[C@@H](Cc1ccc(O)cc1)C(=O)N[C@@H](Cc1ccc(O)cc1)C(=O)N[C@@H](CC(N)=O)C(=O)N[C@@H](Cc1c[nH]c2ccccc12)C(=O)N[C@@H](CC(C)C)C(=O)N[C@H](C(=O)N[C@@H](CCCNC(=N)N)C(=O)N[C@@H](CCC(N)=O)C(=O)N[C@@H](CCCNC(=N)N)C(=O)N[C@@H](Cc1ccc(O)cc1)C(N)=O)[C@@H](C)O
notes: also called Compound 56; 56
B4: N{alpha-4}-(3-Methylbutanoyl)-N{Epsilon-10}-[(4S)-4-carboxy-4-[[2-[2-[2-[[(4S)-4-carboxy-4-(17-carboxyheptadecanoylamino)butanoyl]amino]ethoxy]ethoxy]-acetyl]am … (peptide)
peptide: Isovaleryl-RPEAPPK([γGlu-AEEA-γGlu-C18 diacid])DASPEELQRYYESLRHYYNWLTRQRY-NH2
notes: also called Compound 54; 54

How the values were obtained:
[1] = molecular target: human Y4 receptor (P50391, NPY4R_HUMAN, Uniprot) (human) (UniProt P50391); test: ratio of SPA values, Y2 as reference
human Y4 receptor (P50391, NPY4R_HUMAN, Uniprot) (human), sequence (P50391 whole entry): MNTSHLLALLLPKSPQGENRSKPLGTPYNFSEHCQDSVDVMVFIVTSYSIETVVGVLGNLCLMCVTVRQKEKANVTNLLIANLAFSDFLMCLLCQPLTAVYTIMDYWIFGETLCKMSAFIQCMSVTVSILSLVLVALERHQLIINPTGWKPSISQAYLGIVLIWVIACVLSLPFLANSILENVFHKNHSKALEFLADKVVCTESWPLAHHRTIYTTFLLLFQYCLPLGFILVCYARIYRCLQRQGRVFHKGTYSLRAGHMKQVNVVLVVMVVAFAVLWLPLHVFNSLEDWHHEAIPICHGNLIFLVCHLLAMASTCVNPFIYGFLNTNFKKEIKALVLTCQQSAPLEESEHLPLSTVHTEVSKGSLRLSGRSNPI

[2] = molecular target: T1, human Y1 receptor (P25929, NPY1R_HUMAN, Uniprot) (human, UniProt P25929 1-384); test: SPA vs [125I]-PYY(1-36)
T1 construct: whole, on cells; Assayed as membrane preparations of the expressing cells; also called NPY-Y1 receptor
T1 sequence (looked up): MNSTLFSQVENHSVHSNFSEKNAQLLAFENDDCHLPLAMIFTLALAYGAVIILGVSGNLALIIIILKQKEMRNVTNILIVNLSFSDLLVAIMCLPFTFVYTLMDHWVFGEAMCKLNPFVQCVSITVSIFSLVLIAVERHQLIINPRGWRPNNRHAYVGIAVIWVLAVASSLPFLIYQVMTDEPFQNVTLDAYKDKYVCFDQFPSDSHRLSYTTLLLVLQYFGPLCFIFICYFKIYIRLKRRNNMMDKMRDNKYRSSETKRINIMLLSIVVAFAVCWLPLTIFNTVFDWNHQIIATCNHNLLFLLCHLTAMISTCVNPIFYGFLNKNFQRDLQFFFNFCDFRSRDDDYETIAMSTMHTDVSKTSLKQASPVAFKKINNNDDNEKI
Experimental: (§1) Human Y receptor SPA binding assay were performed in white 96-well plates in a total volume of 200 μl per well.
(§2) Plates were sealed and incubated at +25° C. for 2 hours in a plate shaker set at 400 rpm and thereafter centrifuged at 1500 rpm for 10 minutes prior to reading of luminescence on a microplate scintillation and luminescence counter.

[3] = molecular target: T2, human Y2 receptor (P49146, NPY2R_HUMAN, Uniprot) (human, UniProt P49146 1-381); test: cell-based or functional assay
T2 sequence (looked up): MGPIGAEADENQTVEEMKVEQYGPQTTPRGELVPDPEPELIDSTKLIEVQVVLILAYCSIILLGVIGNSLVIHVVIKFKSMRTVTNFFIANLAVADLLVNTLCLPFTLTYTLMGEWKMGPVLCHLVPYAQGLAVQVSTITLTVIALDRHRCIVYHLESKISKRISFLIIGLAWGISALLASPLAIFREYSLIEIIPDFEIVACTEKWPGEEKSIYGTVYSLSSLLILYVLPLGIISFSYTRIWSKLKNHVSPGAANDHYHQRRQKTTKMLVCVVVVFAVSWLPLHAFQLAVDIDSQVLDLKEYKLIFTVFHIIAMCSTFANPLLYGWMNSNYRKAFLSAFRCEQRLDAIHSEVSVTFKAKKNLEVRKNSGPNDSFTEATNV

[4] = molecular target: T2, human Y2 receptor (P49146, NPY2R_HUMAN, …); test: SPA vs [125I]-PYY(1-36)
Experimental: as §1, §2

[5] = molecular target: T3, human Y5 receptor (Q15761, NPY5R_HUMAN, Uniprot) (human, UniProt Q15761 1-445); test: SPA vs [125I]-PYY(1-36)
T3 construct: whole, on cells; Assayed as membrane preparations of the expressing cells
T3 sequence (looked up): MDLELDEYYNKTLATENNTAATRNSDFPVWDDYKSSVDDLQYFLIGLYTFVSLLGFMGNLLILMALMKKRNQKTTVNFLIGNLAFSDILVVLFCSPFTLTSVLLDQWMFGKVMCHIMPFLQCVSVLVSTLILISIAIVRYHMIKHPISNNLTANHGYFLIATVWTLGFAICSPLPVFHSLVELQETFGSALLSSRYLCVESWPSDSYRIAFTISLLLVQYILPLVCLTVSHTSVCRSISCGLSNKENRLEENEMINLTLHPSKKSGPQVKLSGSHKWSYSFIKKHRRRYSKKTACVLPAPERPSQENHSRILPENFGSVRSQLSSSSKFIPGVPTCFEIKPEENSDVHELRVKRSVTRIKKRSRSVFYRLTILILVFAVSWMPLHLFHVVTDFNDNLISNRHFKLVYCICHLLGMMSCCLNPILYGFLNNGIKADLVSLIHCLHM
Experimental: as §1, §2

[6] = molecular target: T3, human Y5 receptor (Q15761, NPY5R_HUMAN, …); test: ratio of SPA values, Y2 as reference
Experimental: as §1, §2

[7] = molecular target: T4, human Y4 receptor (P50391, NPY4R_HUMAN, Uniprot) (human, UniProt P50391 1-375); test: ratio of SPA values, Y2 as reference
T4 construct: whole, on cells; Assayed as membrane preparations of the expressing cells
T4 sequence (P50391 whole entry): as the sequence (P50391 whole entry) above
Experimental: as §1, §2

[8] = molecular target: T4, human Y4 receptor (P50391, NPY4R_HUMAN, …); test: SPA vs [125I]-PP
Experimental: as §1, §2

Row | Molecule | Ratio of Y4/Y2 SPA binding values [1] | Ki [2] | Y2 EC50, Actone functional potency assay [3] | Ki [4] | Ki [5] | Ratio of Y5/Y2 EC50 values [6] | Ratio of Y4/Y2 EC50 values [7] | Ki [8]
1 | N{alpha-4}-(3-Methylbutanoyl)-N{Epsilon-7}-[2-[2-[2-[[2-[2-[2-[[2-[2-[2-[[2-[2-[2-[[(4S)-4-carboxy-4-(17-carboxyheptadecanoylamino)butanoyl]amino]-ethoxy]ethoxy]acetyl]amino]ethoxy]ethoxy]acetyl]amino]ethoxy]ethoxy]acetyl]amino]ethoxy]ethoxy]acetyl]-[Arg4,Lys7,Pro9,Gln18,Tyr28,Trp30,Leu31]-PYY(4-36) (peptide) | > 18300 |  |  |  |  |  |  | 
2 | B1 |  | 8820 nM |  |  |  |  |  | 
3 | B2 |  | 2400 nM | 0.99 nM | 2.3 nM | 116 nM | 50 | > 4350 | 
4 | B3 |  |  | 0.54 nM | 1.4 nM | 279 nM | 193 | 3060 | 4410 nM
5 | B4 |  | 2420 nM | 1.6 nM | 3.1 nM | 254 nM |  |  | 5910 nM
